Where two headings read alike, the source gives them in different places. Ends that are not written are not given here. A value given as a limit tells only on which side of the number the result lay.

Sequences and labels used below:
B10: LiRAD51^ATPase (Leishmania infantum RAD51 ATPase domain, residues 134–386) (domain or fragment)
chain: EIIMVTTGSREVDKLLGGGIETGSITELFGEFRTGKTQLCHTLCVTCQLPISQGGAEGMALYIDTEGTFRPERLVAVAARYGLDPEDVLANVACARAFNTDHQQQLLLQASAMMAENRFALIVVDSATALYRTDYSGRNELAARQMHLGKFLRSLHNLAEEYGVAVVVTNQVVANVDGSAQMFQADSKKPIGGHIMAHASTTRLSLRKGRGEQRIIKVYDSPCLAEAEAIFGIYDDGVGDARD

The target of test [1] is B10. Kind of test: FP.
Test [2] concerns the target B10. Kind of test: FP.
Test [3] concerns the target B10. Kind of test: FP.
The target in test [4] is B10. Kind of test: ITC. In general terms: In ITC the heat of successive injections is recorded.
In a further test the target is LiBRC1.12. Kind of test: FP.
Another test deals with LiBRC1.6. Kind of test: FP.
The target in the next test is LiBRC1.4. Kind of test: FP.
Another test has as its target LiBRC1.5. Kind of test: FP.

B1: GB1-LiBRC1-His8 (BRC repeat 1 of Leishmania infantum BRCA2 fused to GB1) (domain or fragment)
chain: GB1-LVPTLFSTASGKPVTVRRESLQKVAERLGDLAA-His8
In the case of B1, the half-inhibitory concentration (IC50) in test [1] is 1.57 µM.

B2: LiBRC1.3 (LiBRC1 with extended termini, GB1 fusion) (domain or fragment)
chain: AAAPPLVPTLFSTASGKPVTVRRESLQKVAERLGDLAA
modifications: not fully specified (N-terminus); also: GB1 fusion
Molecule B2 yielded an IC50 in test [2] of 1.67 µM.

B3: LiBRC1.10 (C-terminal truncation of LiBRC1, Val131 also removed, GB1 fusion) (domain or fragment)
chain: LVPTLFSTASGKPVTVRRESLQK
modifications: not fully specified (N-terminus); also: GB1 fusion
For the molecule B3, half-maximal inhibition in test [2] (IC50) required 41 µM. Compared with the last molecule, the IC50 is about 25-fold higher.

B4: LiBRC1.9 (C-terminal truncation of LiBRC1, GB1 fusion) (domain or fragment)
chain: LVPTLFSTASGKPVTVRRESLQKV
modifications: not fully specified (N-terminus, C-terminus); also: GB1 fusion
Take B4: the IC50 in test [2] was 11 µM. The affinity in test [3], expressed as Kd, was 2.63 µM.

B5: LiBRC1.11 (C-terminal truncation of LiBRC1 up until Gln129, GB1 fusion) (domain or fragment)
chain: LVPTLFSTASGKPVTVRRESLQ
modifications: not fully specified (N-terminus); also: GB1 fusion
On to B5, for which the IC50 in test [2] came out at 36.5 µM.

B6: LiBRC1.8 (C-terminal truncation of LiBRC1, Glu133 also removed, GB1 fusion) (domain or fragment)
chain: LVPTLFSTASGKPVTVRRESLQKVA
modifications: not fully specified (N-terminus); also: GB1 fusion
Turning to B6, it took 8.8 µM to reach half-maximal inhibition in test [2] (IC50).

B7: LiBRC1.7 (C-terminal truncation of LiBRC1, residues up to Arg134 removed, GB1 fusion) (domain or fragment)
chain: LVPTLFSTASGKPVTVRRESLQKVAE
modifications: not fully specified (N-terminus); also: GB1 fusion
B7 yielded an IC50 in test [2] of 1.99 µM.

B8: GB1-LiBRC2-His8 (BRC repeat 2 of Leishmania infantum BRCA2 fused to GB1) (domain or fragment)
chain: GB1-RVPTLFETGRGKAVTVQKRSLDKAEASMDSLEA-His8
B8 displayed a half-maximal inhibitory concentration (IC50) in test [1] of 55 µM.

B9: LiBRC1 free peptide (peptide)
chain: GSLVPTLFSTASGKPVTVRRESLQKVAERLGDLAA
In turn, B9 came in with a Ka in test [4] of 1.54e+06 M⁻¹. As for B10, the Kd with LiBRC1.12 is more than 124 µM; in the test with LiBRC1.6, 1.09 µM; with LiBRC1.4, 0.41 µM; with LiBRC1.5 it was 0.38 µM.

B11: LiBRC1.2 (LiBRC1 with extended termini, GB1 fusion) (domain or fragment)
chain: LVPTLFSTASGKPVTVRRESLQKVAERLGDLAAPDME
modifications: not fully specified (N-terminus); also: GB1 fusion
In test [2], B11 registered an IC50 of 1.2 µM.

For orientation: IC50 means the concentration at which inhibition is half-maximal. Lower therefore signals inhibition by little substance. The term Kd denotes the concentration at which binding is half-saturated. Lower therefore signals tighter binding.

Source of the values: PMC9162458 (2022).
